# Source: patent publication US7514397
# Biological target: viral gp41 of HIV-1IIIB (HIV-1IIIB)
# Experiment: cell-based or functional assay
Substance,Cell fusion (IC90) [µM],HIV infectivity (IC90) [µM]
"M41, maltose binding protein fusion with the extracellular domain of HIV-1 gp41 (540-686) (from UniProt P03377 540-686)",> 50,> 16
"M41-P, M41 fusion protein with an Ile to Pro mutation at position 578 (from UniProt P0AEX9 27-392; P03377 540-686)",0.083,0.066
"M41-PΔ178, M41-P fusion protein from which the DP-178 region has been deleted (gp41 540-642, Ile578Pro) (from UniProt P03377 540-642)",> 50,> 8
